One data set concerns the target T1, Pea leaf FNR (Lathyrus oleraceus, UniProt P10933).
T1 construct: gene PETH; preparation of the assayed enzyme not described; monomeric FAD flavoprotein
T1 sequence (P10933 53-360): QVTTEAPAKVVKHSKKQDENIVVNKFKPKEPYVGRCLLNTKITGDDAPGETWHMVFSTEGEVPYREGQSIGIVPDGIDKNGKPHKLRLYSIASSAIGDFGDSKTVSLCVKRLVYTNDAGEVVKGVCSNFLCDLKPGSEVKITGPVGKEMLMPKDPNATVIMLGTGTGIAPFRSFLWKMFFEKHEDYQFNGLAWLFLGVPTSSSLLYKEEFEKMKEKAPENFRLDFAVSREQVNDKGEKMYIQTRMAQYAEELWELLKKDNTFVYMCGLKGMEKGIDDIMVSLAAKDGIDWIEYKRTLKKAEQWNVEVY
The experiment in a line: difference absorption spectroscopy. The note with it: read-out: K d ^NADP+ /. Type of data set: binding. An excerpt:
difference absorption spectroscopy on Pea leaf FNR

For data set [1], the target named is T2, E. coli FNR (Escherichia coli, UniProt P28861).
T2 construct: gene fpr; ferredoxin-NADP(H) reductase, not the FNR transcription regulator
T2 sequence (P28861 2-248): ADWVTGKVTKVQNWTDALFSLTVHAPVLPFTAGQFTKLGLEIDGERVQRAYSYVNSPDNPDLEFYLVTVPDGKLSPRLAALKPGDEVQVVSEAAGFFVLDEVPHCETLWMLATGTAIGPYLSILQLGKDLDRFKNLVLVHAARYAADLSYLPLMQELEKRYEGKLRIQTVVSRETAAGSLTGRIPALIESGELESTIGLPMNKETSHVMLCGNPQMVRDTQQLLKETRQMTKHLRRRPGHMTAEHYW
As to the kind of experiment: difference absorption spectroscopy. To be noted: read-out: K d ^NADP+ /. Type of data set: binding. The text has this:
difference absorption spectroscopy on E. coli FNR

The target in data set [2] is T3, LepFNR (Leptospira interrogans, UniProt Q8EY89).
T3 construct: gene LA_4327; recombinant in E. coli BL21(DE3)pLysS, thioredoxin fusion (pET32JO-LepFNR) cut off by thrombin; monomeric FAD flavoprotein
The experiment in a line: difference absorption spectroscopy titration. Type of data set: binding. The text has this:
difference absorption spectroscopy titration on LepFNR

Data set [3] deals with T3, LepFNR. The experiment in a line: UV-visible spectrum; FAD fluorescence (release with urea). Type of data set: binding. The note with it: noncovalently bound prosthetic group, 50 mM Tris-HCl pH 8.0, 25 °C.
Data set [4] has as its target T2, E. coli FNR. As to the kind of experiment: UV-visible spectrum. Type of data set: binding. To be noted: noncovalently bound prosthetic group.
Data set [5] deals with NC(=O)C1=CN([C@@H]2O[C@H](COP(=O)(O)OP(=O)(O)OC[C@H]3O[C@@H](n4cnc5c(N)ncnc54)[C@H](OP(=O)(O)O)[C@@H]3O)[C@@H](O)[C@H]2O)C=CC1. The experiment in a line: purified protein. The note with it: 1 mM potassium ferricyanide, NADPH regenerating system, 50 mM Tris-HCl pH 8.0, 30 °C.
For data set [6], the target named is Leptospira interrogans ferredoxin-NADP(H) reductase (L. interrogans).
Data set [7] has the same target. The source holds these as a separate data set.
Substrate in data set [8]: NC(=O)C1=CN([C@@H]2O[C@H](COP(=O)(O)OP(=O)(O)OC[C@H]3O[C@@H](n4cnc5c(N)ncnc54)[C@H](OP(=O)(O)O)[C@@H]3O)[C@@H](O)[C@H]2O)C=CC1
The experiment in a line: purified protein. Type of data set: biochemical, Lathyrus oleraceus. The note with it: 1 mM potassium ferricyanide, NADPH regenerating system, 50 mM Tris-HCl pH 8.0, 30 °C.

Substrate in data set [9]: NC(=O)C1=CN([C@@H]2O[C@H](COP(=O)(O)OP(=O)(O)OC[C@H]3O[C@@H](n4cnc5c(N)ncnc54)[C@H](OP(=O)(O)O)[C@@H]3O)[C@@H](O)[C@H]2O)C=CC1
The experiment in a line: purified protein. The note with it: 1 mM potassium ferricyanide, NADPH regenerating system, 50 mM Tris-HCl pH 8.0, 30 °C. Type of data set: biochemical, Escherichia coli.

T3 sequence (Q8EY89 entry or part of it): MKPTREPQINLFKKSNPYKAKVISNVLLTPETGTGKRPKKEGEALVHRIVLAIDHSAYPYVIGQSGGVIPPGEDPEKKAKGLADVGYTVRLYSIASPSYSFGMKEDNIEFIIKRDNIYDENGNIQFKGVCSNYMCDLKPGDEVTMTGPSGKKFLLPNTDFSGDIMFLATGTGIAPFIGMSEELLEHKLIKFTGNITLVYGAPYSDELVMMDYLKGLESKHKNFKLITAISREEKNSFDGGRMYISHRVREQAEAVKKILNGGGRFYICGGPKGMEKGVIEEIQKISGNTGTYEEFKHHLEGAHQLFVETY

With `NC(=O)c1ccc[n+]([C@@H]2O[C@H](COP(=O)(O)OP(=O)(O)OC[C@H]3O[C@@H](n4cnc5c(N)ncnc54)[C@H](OP(=O)(O)O)[C@@H]3O)[C@@H](O)[C@H]2O)c1` [NADP^+], the results for the Kd on Pea leaf FNR, on E. coli FNR [1] and at LepFNR [2] were 11.3 ± 2.1 µM, 7.6 ± 2.2 µM and 13.2 ± 3.1 µM, respectively.
Regarding `Cc1cc2nc3c(=O)[nH]c(=O)nc-3n(C[C@H](O)[C@H](O)[C@H](O)COP(=O)(O)OP(=O)(O)OC[C@H]3O[C@@H](n4cnc5c(N)ncnc54)[C@H](O)[C@@H]3O)c2cc1C` [FAD], on LepFNR [3], the “UV-visible spectrum; FAD fluorescence (release with urea)” value was “the prosthetic group remains bound to the enzyme”. In addition, the UV-visible spectrum result at E. coli FNR [4] was “spectra of the pea leaf FNR, E. coli FNR and LepFNR, all essentially in oxidized states”.
Usually Km stands for the concentration of substrate that gives half-maximal velocity. What is called kcat is the number of substrate molecules converted per active site and unit of time at saturation. In general, kcat/Km refers to the turnover number divided by the Michaelis constant. Take “LepFNR (Leptospira interrogans serovar Lai str. 56601)”: in [5], the Km was 14.5 ± 1.7 µM, the turnover number (kcat) stood at 258 ± 13.7 s⁻¹ and the kcat/Km amounted to 1.78e+07 M⁻¹ s⁻¹.
“Leptospira interrogans LB107 [4Fe-4S] ferredoxin (natural protein)” registered an NADPH-cytochrome c reductase activity of LepFNR with LB107 ferredoxin under anaerobic conditions at different pH values; maximal specific activity at pH 6.5, lower at higher pH in [6] of 6.13 µmol/min/mg.
As to “Pisum sativum leaf ferredoxin (from UniProt P09911 53-149) (natural protein)”, the NADPH-cytochrome c reductase activity of LepFNR with P. sativum leaf ferredoxin; the reaction was linear with pea leaf ferredoxin up to 70 µM, no kinetic parameters determined in [7] was 2.5 s⁻¹.

B1: Pea leaf FNR (Lathyrus oleraceus) (protein)
chain: T1 sequence (P10933 53-360)
notes: preparation of the assayed enzyme not described; monomeric FAD flavoprotein
For B1, in “purified protein [8]”, the Km stood at 15.0 ± 1.6 µM, the kcat is 325 ± 16.5 s⁻¹ and the kcat/Km was found to be 2.17e+07 M⁻¹ s⁻¹.

B2: E. coli FNR (Escherichia coli K-12) (protein)
chain: T2 sequence (P28861 2-248)
notes: ferredoxin-NADP(H) reductase, not the FNR transcription regulator
On to B2, for which, in “purified protein [9]”, the Km was 8.3 ± 0.5 µM, the kcat is 38.2 ± 2.3 s⁻¹ and the kcat/Km was found to be 5e+06 M⁻¹ s⁻¹.

These data come from PMC3200346, “A Highly Stable Plastidic-Type Ferredoxin-NADP(H) Reductase in the Pathogenic Bacterium Leptospira interrogans” (PLoS ONE, 2011).
